Article PMC11035981, “Activity assays of NnlA homologs suggest the natural product N-nitroglycine is degraded by diverse bacteria” (Beilstein Journal of Organic Chemistry, 2024)

Assays:
Assay in all cases: SEC; analytical size exclusion, Superdex 200 Increase 10/300 GL, mobile phase 100 mM tricine, 100 mM NaCl, pH 7.5; masses from BioRad protein standards; self-association of each purified NnlA
[1] = target: N-nitroglycine lyase A (NnlA) from Variovorax sp. strain JS1663 (Variovorax sp. strain JS1663)
[2] = target: NnlA homolog from Mycobacterium sp. 1465703.0 (Mycobacterium sp. 1465703.0)
[3] = target: NnlA homolog from Pseudonocardia spinosispora DSM 44797 (Pseudonocardia spinosispora DSM 44797)
[4] = target: NnlA homolog from Pseudovibrio denitrificans JCM 1230 (Pseudovibrio denitrificans JCM 1230)
[5] = target: the molecule itself

N-nitroglycine lyase A (NnlA) from Variovorax sp. strain JS1663 (enzyme)
stoichiometry N [1]: 2

NnlA homolog from Mycobacterium sp. 1465703.0 (enzyme)
stoichiometry N [2]: 2

NnlA homolog from Pseudonocardia spinosispora DSM 44797 (enzyme)
stoichiometry N [3]: 2

NnlA homolog from Pseudovibrio denitrificans JCM 1230 (enzyme)
stoichiometry N [4]: 2

B1: NnlA homolog from Microbispora rosea subsp. nonnitritogenes strain NRRL B-2631 (enzyme)
chain: MTSQAEPAEAAESRIATDWGLDEWADRLIDQAGVGVTILNRHGTVMYYNKWASEHLDRRPEYIGNDVRKRHRRAVTNPRLDAMLKLFEDGRVEPVRYVARPYGKTTILVTVSPIRVDGELVGFSQIVLLKDEVQELCARFDESGRESFEREMLPNGPPAT
stoichiometry N [5]: 2
